Source: FireProtDB (doi:10.1016/0022-2836(74)90188-0)

Settings: Aspergillus oryzae (strain ATCC 42149 / RIB 40); pH 4.7; 38 °C; GdnHCl; DSC; glycine 0.04 M; reversible: yes(>90%); whole UniProt chain shown

B1: Guanyl-specific ribonuclease T1 wild type, P00651 (protein)
chain: MMYSKLLTLTTLLLPTALALPSLVERACDYTCGSNCYSSSDVSTAQAAGYQLHEDGETVGSNSYPHKYNNYEGFDFSVSSPYYEWPILSSGDVYSGGSPGADRVVFNENNQLAGVITHTGASGNNFVECT
Work on B1 yielded an unfolding free energy of 6.6 kcal/mol.
